Laboratory results taken from article PMC11865472.

What follows are substances tested against TGF-β2 (growth factor domain, wild type) (human) (assay: SPR; BIAcore T200; TGF-β2 WT or TGF-β2 mutants amine-coupled (EDC-NHS) to a CM4 chip, max 400 RU; zfBGO WT or BGZP-C WT injected, 2-fold dilution series 250 - 15.6 nM; 10 mM CHES, 150 mM NaCl, 3 mM EDTA, 0.01% P20, pH 8.0; 100 µl/min; 1:1 kinetic model with drift; three consecutive repeats). Settings: not given.

Q: With “zebrafish betaglycan orphan domain (zfBGO), wild type (domain or fragment)” as the substance, how does the Kd read?
A: 148 nM

The substances below were run against TGF-β2 (Y50A, L51A) (human) in the same assay as above. Settings: not given.

Q: With “zebrafish betaglycan orphan domain (zfBGO), wild type (domain or fragment)” as the substance, how does the Kd read?
A: 205 nM

The substances below were run against biotin-TGF-β2 (minimally biotinylated TGF-β2) (human) (assay: SPR; BIAcore X100; minimally biotinylated TGF-β2 captured on a neutravidin CM5 chip, max 50 RU; zfBGO variants injected, 2-fold dilution series (500 or 1000 - 31.3 nM); 10 mM CHES, 150 mM NaCl, 3 mM EDTA, 0.01% P20, pH 8.6; 100 µl/min; 1:1 kinetic model; two consecutive repeats). Settings: not given.

Q: “zebrafish betaglycan orphan domain (zfBGO), wild type (domain or fragment)” was tested. Which Kd did it give?
A: 38 nM

Q: With zfBGO K316A (domain or fragment) as the substance, how does the Kd read?
A: 135 nM

Q: How did the Kd turn out when zfBGO K319A (domain or fragment) was run?
A: 175 nM

Q: With zfBGO L208A (domain or fragment) as the substance, how does the Kd read?
A: 88 nM

The substances below were run against biotinylated TGF-β2 homodimer (assay: SPR). Settings: surface: TGF-β2; parent: est. 33; read off a plot.

Q: For “zebrafish betaglycan orphan domain (zfBGO) K316A”, which Kd is on record?
A: 130 nM

Q: Which Kd does the source give for “zebrafish betaglycan orphan domain (zfBGO) K319A” here?
A: 180 nM

Same assay, conditions: surface: TGF-β2; parent: est. 160; read off a plot

Q: Which Kd does the source give for “rat betaglycan ZP-C domain (BG_(ZP-C)), mammalian-expressed D88A” here?
A: 230 nM

Q: “rat betaglycan ZP-C domain (BG_(ZP-C)), mammalian-expressed E130A” was tested. Which Kd did it give?
A: 1400 nM

Q: Which Kd does the source give for “rat betaglycan ZP-C domain (BG_(ZP-C)), mammalian-expressed K86A” here?
A: 70 nM

Q: For “rat betaglycan ZP-C domain (BG_(ZP-C)), mammalian-expressed L143A”, which Kd is on record?
A: 130 nM

Q: With “rat betaglycan ZP-C domain (BG_(ZP-C)), mammalian-expressed M164A” as the substance, how does the Kd read?
A: 320 nM

Q: With “rat betaglycan ZP-C domain (BG_(ZP-C)), mammalian-expressed M165A” as the substance, how does the Kd read?
A: 330 nM

Q: For “rat betaglycan ZP-C domain (BG_(ZP-C)), mammalian-expressed Q166A”, which Kd is on record?
A: 200 nM

Q: Which Kd does the source give for “rat betaglycan ZP-C domain (BG_(ZP-C)), mammalian-expressed S155A” here?
A: 290 nM

Q: Which Kd does the source give for “rat betaglycan ZP-C domain (BG_(ZP-C)), mammalian-expressed W162A” here?
A: 730 nM

Q: “rat betaglycan ZP-C domain (BG_(ZP-C)), mammalian-expressed W162A; M165A” was tested. Which Kd did it give?
A: 1300 nM

Each substance was assayed against inhibin A (InhA), mature heterodimer (UniProt P05111) (assay: SPR; TGF-β2 (b) or InhA (c) immobilised; BGZP-C mutants injected, 2-fold serial dilutions 500 - 15.6 nM; three consecutive repeats). Settings: not given.
inhibin A (InhA), mature heterodimer, sequence (P05111 233-366, chain 1 of 2): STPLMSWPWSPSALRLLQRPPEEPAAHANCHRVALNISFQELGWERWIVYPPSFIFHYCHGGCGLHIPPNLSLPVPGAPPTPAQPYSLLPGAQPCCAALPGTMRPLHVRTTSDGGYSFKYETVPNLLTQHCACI
inhibin A (InhA), mature heterodimer, sequence (P08476 311-426, chain 2 of 2, further chain): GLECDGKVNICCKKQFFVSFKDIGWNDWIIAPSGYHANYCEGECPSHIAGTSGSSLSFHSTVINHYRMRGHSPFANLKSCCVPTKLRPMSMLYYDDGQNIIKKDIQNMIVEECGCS

Q: For BGZP-C I161A (domain or fragment), which Kd is on record?
A: 1080 nM

Q: BGZP-C I161Y (domain or fragment) was tested. Which Kd did it give?
A: 815 nM

Q: How did the Kd turn out when BGZP-C N82A (domain or fragment) was run?
A: 968 nM

Q: For BGZP-C N82Y (domain or fragment), which Kd is on record?
A: 883 nM

These substances were tested against TGF-β2 (growth factor domain, wild type) (human) (assay: SPR; TGF-β2 immobilised on the chip surface; ratBGO, zfBGO, ratBGO-zfBL or ratBGO-Y248A injected, 2-fold dilution series 500 - 31.3 nM; three consecutive repeats). Settings: not given.

Q: Which Kd does the source give for “ratBGO-zfBL (ratBGO with the shortened binding loop of zfBGO) (from UniProt P26342 31-360) (domain or fragment)” here?
A: 88 nM

Q: “zebrafish betaglycan orphan domain (zfBGO), wild type (domain or fragment)” was tested. Which Kd did it give?
A: 86 nM
